One data set has as its target T1, AtFADS1 (Arabidopsis thaliana, UniProt Q9LZE4).
T1 construct: gene FADS1; N-terminus from primer MEIDKA
T1 sequence (Q9LZE4 1-497): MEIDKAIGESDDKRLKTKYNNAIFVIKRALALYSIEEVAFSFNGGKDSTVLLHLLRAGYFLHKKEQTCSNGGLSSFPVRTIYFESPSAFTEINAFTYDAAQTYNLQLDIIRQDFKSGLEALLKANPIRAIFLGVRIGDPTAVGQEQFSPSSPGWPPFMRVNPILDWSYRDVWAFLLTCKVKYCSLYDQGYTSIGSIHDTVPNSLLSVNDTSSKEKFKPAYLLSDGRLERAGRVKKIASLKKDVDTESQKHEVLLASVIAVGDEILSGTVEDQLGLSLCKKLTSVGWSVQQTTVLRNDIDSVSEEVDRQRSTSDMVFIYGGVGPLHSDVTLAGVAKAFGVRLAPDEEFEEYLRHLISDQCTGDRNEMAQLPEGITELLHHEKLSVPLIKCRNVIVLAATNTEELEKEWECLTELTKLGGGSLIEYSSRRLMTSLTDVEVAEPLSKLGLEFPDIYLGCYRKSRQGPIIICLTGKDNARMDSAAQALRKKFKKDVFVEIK
Briefly: HPLC-fluorescence FAD synthetase assay, substrate-inhibition fit. The format is biochemical. Conditions: substrate inhibition by FMN; 10 mM ATP, zinc acetate 2 mM above ATP, Hepes-NaOH pH 7.0, 30 °C. The text has this:
HPLC-fluorescence FAD synthetase assay, substrate-inhibition fit on AtFADS1

The target in the next data set is T2, AtFADS1^trunc (Arabidopsis thaliana, UniProt Q9LZE4).
T2 construct: gene FADS1; N-terminal FAD synthetase domain only, starting at native Met1
T2 sequence (Q9LZE4 1-254 limits assumed): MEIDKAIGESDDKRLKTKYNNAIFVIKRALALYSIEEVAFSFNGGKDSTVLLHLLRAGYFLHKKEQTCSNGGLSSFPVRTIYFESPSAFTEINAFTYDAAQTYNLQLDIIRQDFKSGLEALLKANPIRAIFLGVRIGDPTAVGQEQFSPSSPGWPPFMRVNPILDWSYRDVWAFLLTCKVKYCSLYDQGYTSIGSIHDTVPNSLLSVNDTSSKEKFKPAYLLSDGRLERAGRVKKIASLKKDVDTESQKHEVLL
The description is as above. The data set is classed as biochemical. The settings on record: substrate inhibition by FMN; ATP, zinc acetate 2 mM above ATP, Hepes-NaOH pH 7.0, 30 °C. An excerpt:
HPLC-fluorescence FAD synthetase assay, substrate-inhibition fit on AtFADS1^trunc

The next data set deals with T3, CrFADS1 (Chlamydomonas reinhardtii, UniProt A0A2K3D179).
T3 construct: gene FADS1; bifunctional fusion
T3 sequence (A0A2K3D179 1-582): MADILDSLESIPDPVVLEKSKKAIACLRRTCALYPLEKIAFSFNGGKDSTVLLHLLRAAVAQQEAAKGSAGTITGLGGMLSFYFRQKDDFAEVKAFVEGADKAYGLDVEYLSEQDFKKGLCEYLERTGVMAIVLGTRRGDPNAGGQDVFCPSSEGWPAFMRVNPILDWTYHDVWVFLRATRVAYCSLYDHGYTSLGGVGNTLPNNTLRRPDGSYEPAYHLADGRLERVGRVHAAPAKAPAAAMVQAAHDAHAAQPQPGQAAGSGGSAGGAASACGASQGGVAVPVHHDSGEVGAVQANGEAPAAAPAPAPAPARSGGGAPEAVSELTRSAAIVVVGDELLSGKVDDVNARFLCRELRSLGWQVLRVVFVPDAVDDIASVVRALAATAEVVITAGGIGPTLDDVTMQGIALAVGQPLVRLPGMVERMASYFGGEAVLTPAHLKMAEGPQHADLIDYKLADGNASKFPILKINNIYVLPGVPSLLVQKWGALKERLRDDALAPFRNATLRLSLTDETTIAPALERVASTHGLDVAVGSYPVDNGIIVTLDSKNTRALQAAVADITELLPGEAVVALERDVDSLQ
Described as above. The data set is classed as biochemical. The settings on record: substrate inhibition by FMN; 10 mM ATP, zinc acetate 2 mM above ATP, Hepes-NaOH pH 7.0, 30 °C. An excerpt: (§1) HPLC-fluorescence FAD synthetase assay, substrate-inhibition fit on CrFADS1

Substrate in data set [1]: Cc1cc2nc3c(=O)[nH]c(=O)nc-3n(C[C@H](O)[C@H](O)[C@H](O)COP(=O)(O)OP(=O)(O)OC[C@H]3O[C@@H](n4cnc5c(N)ncnc54)[C@H](O)[C@@H]3O)c2cc1C
Briefly: HPLC-fluorescence FAD pyrophosphatase assay, Michaelis-Menten. The format is biochemical, Chlamydomonas reinhardtii. The settings on record: FAD pyrophosphatase activity, 2 mM CoCl2, 200 mM KCl, Hepes-NaOH pH 7.0, 30 °C. The text has this:
HPLC-fluorescence FAD pyrophosphatase assay, Michaelis-Menten on […]1

Substrate in data set [2]: Cc1cc2nc3c(=O)[nH]c(=O)nc-3n(C[C@H](O)[C@H](O)[C@H](O)COP(=O)(O)O)c2cc1C
Briefly: HPLC-fluorescence FAD synthetase assay, substrate-inhibition fit. The settings on record: FAD synthetase activity, 10 mM ATP, zinc acetate 2 mM above ATP, Hepes-NaOH pH 7.0, 30 °C. The data set is classed as biochemical, Chlamydomonas reinhardtii.
From the text: as §1

Substrate in data set [3]: Nc1ncnc2c1ncn2[C@@H]1O[C@H](COP(=O)(O)OP(=O)(O)OP(=O)(O)O)[C@@H](O)[C@H]1O
As to the kind of experiment: HPLC-fluorescence FAD synthetase assay, Michaelis-Menten. The data set is classed as biochemical, Arabidopsis thaliana. The settings on record: FAD synthetase activity, 15 μM FMN, zinc acetate 2 mM above ATP, Hepes-NaOH pH 7.0, 30 °C. The text has this:
HPLC-fluorescence FAD synthetase assay, Michaelis-Menten on […]1

`Cc1cc2nc3c(=O)[nH]c(=O)nc-3n(C[C@H](O)[C@H](O)[C@H](O)COP(=O)(O)O)c2cc1C` [FMN]: the “Ki” value on AtFADS1 was 190 ± 36 µM; on AtFADS1^trunc, 32.7 ± 18.2 µM; on CrFADS1, 336 ± 66 µM.

B1: CrFADS1 (Chlamydomonas reinhardtii) (protein)
chain: MADILDSLESIPDPVVLEKSKKAIACLRRTCALYPLEKIAFSFNGGKDSTVLLHLLRAAVAQQEAAKGSAGTITGLGGMLSFYFRQKDDFAEVKAFVEGADKAYGLDVEYLSEQDFKKGLCEYLERTGVMAIVLGTRRGDPNAGGQDVFCPSSEGWPAFMRVNPILDWTYHDVWVFLRATRVAYCSLYDHGYTSLGGVGNTLPNNTLRRPDGSYEPAYHLADGRLERVGRVHAAPAKAPAAAMVQAAHDAHAAQPQPGQAAGSGGSAGGAASACGASQGGVAVPVHHDSGEVGAVQANGEAPAAAPAPAPAPARSGGGAPEAVSELTRSAAIVVVGDELLSGKVDDVNARFLCRELRSLGWQVLRVVFVPDAVDDIASVVRALAATAEVVITAGGIGPTLDDVTMQGIALAVGQPLVRLPGMVERMASYFGGEAVLTPAHLKMAEGPQHADLIDYKLADGNASKFPILKINNIYVLPGVPSLLVQKWGALKERLRDDALAPFRNATLRLSLTDETTIAPALERVASTHGLDVAVGSYPVDNGIIVTLDSKNTRALQAAVADITELLPGEAVVALERDVDSLQ
notes: bifunctional fusion
One may read the Km as the concentration of substrate that gives half-maximal velocity. The kcat is the maximal rate divided by the concentration of active sites. As a reminder, the kcat/Km is the turnover number divided by the Michaelis constant. Take B1: in data set [1], the Km stood at 4.88 ± 0.56 µM, the kcat was determined as 0.395 ± 0.011 s⁻¹ and the kcat/Km came out at 81000 ± 9600 M⁻¹ s⁻¹. For the same molecule, in data set [2], the Km was 0.54 ± 0.09 µM, the catalytic constant (kcat) was 0.103 ± 0.004 s⁻¹ and the catalytic efficiency (kcat/Km) came to 191000 ± 33000 M⁻¹ s⁻¹.

B2: AtFADS1 (Arabidopsis thaliana) (protein)
chain: MEIDKAIGESDDKRLKTKYNNAIFVIKRALALYSIEEVAFSFNGGKDSTVLLHLLRAGYFLHKKEQTCSNGGLSSFPVRTIYFESPSAFTEINAFTYDAAQTYNLQLDIIRQDFKSGLEALLKANPIRAIFLGVRIGDPTAVGQEQFSPSSPGWPPFMRVNPILDWSYRDVWAFLLTCKVKYCSLYDQGYTSIGSIHDTVPNSLLSVNDTSSKEKFKPAYLLSDGRLERAGRVKKIASLKKDVDTESQKHEVLLASVIAVGDEILSGTVEDQLGLSLCKKLTSVGWSVQQTTVLRNDIDSVSEEVDRQRSTSDMVFIYGGVGPLHSDVTLAGVAKAFGVRLAPDEEFEEYLRHLISDQCTGDRNEMAQLPEGITELLHHEKLSVPLIKCRNVIVLAATNTEELEKEWECLTELTKLGGGSLIEYSSRRLMTSLTDVEVAEPLSKLGLEFPDIYLGCYRKSRQGPIIICLTGKDNARMDSAAQALRKKFKKDVFVEIK
notes: N-terminus from primer MEIDKA
On to B2, for which, in data set [3], the Km worked out at 665 ± 11 µM, the kcat was found to be 0.287 ± 0.011 s⁻¹ and the catalytic efficiency (kcat/Km) was 432 ± 18 M⁻¹ s⁻¹.
